Results on three variants are retold here after article PMC7016005 (2020).

To fix the notation:
B1: mouse Twist1, wildtype [mouse] / mouse E2A [mouse] (parent complex)
chain 1: MMQDVSSSPVSPADDSLSNSEEEPDRQQPASGKRGARKRRSSRRSAGGSAGPGGATGGGIGGGDEPGSPAQGKRGKKSAGGGGGGGAGGGGGGGGGSSSGGGSPQSYEELQTQRVMANVRERQRTQSLNEAFAALRKIIPTLPSDKLSKIQTLKLAARYIDFLYQVLQSDELDSKMASCSYVAHERLSYAFSVWRMEGAWSMSASH
chain 2: MMNQSQRMAPVGSDKELSDLLDFSMMFPLPVANGKSRPASLGGTQFAGSGLEDRPSSGSWGSSDQNSSSFDPSRTYSEGAHFSDSHSSLPPSTFLGAGLGGKGSERNAYATFGRDTSVGTLSQAGFLPGELSLSSPGPLSPSGIKSSSQYYPSFPSNPRRRAADGGLDTQPKKVRKVPPGLPSSVYPPSSGDSYSRDAAAYPSAKTPSSAYPSPFYVADGSLHPSAELWSTPSQVGFGPMLGDGSSPLPLAPGSSSVGSGTFGGLQQQDRMGYQLHGSEVNGSLPAVSSFSAAPGTYSGTSGHTPPVSGAAAESLLGTRGTTASSSGDALGKALASIYSPDHSSNNFSPSPSTPVGSPQGLPGTSQWPRAGAPSALSPNYDAGLHGLSKMEDRLDEAIHVLRSHAVGTASDLHGLLPGHGALTTSFTGPMSLGGRHAGLVGGSHPEEGLTSGASLLHNHASLPSQPSSLPDLSQRPPDSYSGLGRAGTTAGASEIKREEKEDEEIASVADAEEDKKDLKVPRTRTSPDEDEDDLLPPEQKAEREKERRVANNARERLRVRDINEAFKELGRMCQLHLSSEKPQTKLLILHQAVAVILSLEQQVRERNLNPKAACLKRREEEKVSGVVGDPQLALSAAHPGLGEAHNPAGHL

This test covers variants of B1. The test is described as follows: co-immunoprecipitation (Flag-IP), blot quantified by ImageJ; Flag-E2A bait, Twist1-Myc prey; n = 3; parent: 1; read off a plot.
For the variant chain 1 A190T, the response is ~0.52 relative expression (/GAPDH).
As to chain 1 F191S, the response was ~1.6 relative expression (/GAPDH).
For chain 1 S192P the value was ~0.05 relative expression (/GAPDH).
